For the assay, the target named is CD20. Put plainly: flow_cytometry. The conditions noted are these: 4.0 °C.

What is called EC50 is the midpoint of the concentration-response curve. 2OSL-Fab-H-Y97NY showed an EC50 (pH 6.0) of 20 nM.

Turning to 2OSL-Fab (WT), for the setting “pH 7.4”, the EC50 was determined as 14 nM. Under “pH 6.0”, 2OSL-Fab-L-Y32NY registered a 50% effective concentration (EC50) of 8 nM.

Source of the values: paper PMC11339442.
